Laboratory results as given in paper PMC4320835.

Target: wild-type H3 A/Perth/16/2009 recombinant hemagglutinin (rHA) (influenza A virus, H3 A/Perth/16/2009)
Test: cross-linking

wild-type H3 A/Perth/16/2009 recombinant hemagglutinin (rHA) (natural protein)
percent cross-linked after 1 month at 25°C: 72%
